Experiment [1] has as its target HLA-A*02:01. As to the kind of experiment: IEDB peptide-MHC binding, purified MHC/competitive/fluorescence; ≥ and ≤ were set here for values at or beyond the usual limits of such assays. The note with it: source organism: Sudan ebolavirus.
The next experiment has as its target HLA-A*24:02. The experiment is described as above. The conditions noted are these: source organism: Sudan ebolavirus.
The target in experiment [2] is HLA-B*15:01. The description is as above.
A further experiment deals with HLA-A*01:01. Put plainly: IEDB peptide-MHC binding, purified MHC/direct/fluorescence; filed as Kd, often an IC50 or EC50 that approximates it; ≥ and ≤ were set here for values at or beyond the usual limits of such assays.
The next experiment deals with HLA-A*29:02. Described as above.
In experiment [3] the target is HLA-A*03:01. Described as above.
For another experiment, the target named is HLA-A*11:01. The description is as above.
The target of experiment [4] is HLA-A*31:01. As to the kind of experiment: IEDB peptide-MHC binding, purified MHC/competitive/fluorescence; filed as Kd, often an IC50 or EC50 that approximates it; ≥ and ≤ were set here for values at or beyond the usual limits of such assays.
Experiment [5] addresses HLA-A*02:01. Put plainly: IEDB peptide-MHC binding, purified MHC/direct/fluorescence; filed as Kd, often an IC50 or EC50 that approximates it; ≥ and ≤ were set here for values at or beyond the usual limits of such assays.
The target of another experiment is HLA-A*02:19. The experiment is described as above. The conditions noted are these: source organism: Salmonella enterica subsp. enterica serovar Typhimurium.
The target of experiment [6] is HLA-A*31:01. The description is as above.
The target in a further experiment is HLA-A*69:01. The experiment is described as above.
A further experiment concerns the target HLA-B*58:01. The description is as above.
The next experiment concerns the target HLA-A*24:03. Put plainly: IEDB peptide-MHC binding, purified MHC/competitive/fluorescence; filed as Kd, often an IC50 or EC50 that approximates it; ≥ and ≤ were set here for values at or beyond the usual limits of such assays.
For experiment [7], the target named is HLA-A*02:01. Described as above. The conditions noted are these: source organism: Mus musculus.
For experiment [8], the target named is HLA-A*03:01. The description is as above. The note with it: source organism: Mus musculus.
The next experiment concerns the target HLA-A*26:01. Described as above.
For the next experiment, the target named is HLA-B*15:17. The experiment is described as above.
Experiment [9] has as its target HLA-B*18:01. The description is as above. The note with it: source organism: Mus musculus.
Another experiment addresses HLA-B*27:03. The experiment is described as above.
The target in the next experiment is HLA-B*39:01. The experiment is described as above.
The next experiment concerns the target HLA-B*51:01. The experiment is described as above.
The target of experiment [10] is HLA-B*57:01. The experiment is described as above. The note with it: source organism: Mus musculus.
The target in another experiment is HLA-A*02:12. Put plainly: IEDB peptide-MHC binding, purified MHC/direct/fluorescence; filed as Kd, often an IC50 or EC50 that approximates it; ≥ and ≤ were set here for values at or beyond the usual limits of such assays. The note with it: source organism: Limestone Canyon virus.
A further experiment has as its target HLA-A*68:02. Described as above. The conditions noted are these: source organism: Limestone Canyon virus.
The target in a further experiment is HLA-B*07:02. The description is as above.
Another experiment concerns the target HLA-B*08:01. The description is as above.
Experiment [11] deals with HLA-B*15:01. Described as above.
For experiment [12], the target named is HLA-B*18:01. The description is as above.
Another experiment addresses HLA-B*27:05. Described as above.
The target of a further experiment is HLA-B*40:01. Described as above. The note with it: source organism: Orthohantavirus seoulense.
The target in a further experiment is HLA-B*44:02. The description is as above. The conditions noted are these: source organism: Orthohantavirus seoulense.
The target of the next experiment is HLA-B*46:01. The description is as above.
The target in a further experiment is HLA-B*48:01. Described as above. The conditions noted are these: source organism: Orthohantavirus seoulense.
Experiment [13] concerns the target HLA-B*57:01. The description is as above.
The target of a further experiment is HLA-B*08:02. The experiment is described as above. The note with it: source organism: West Nile virus strain PTRoxo.
The target in the next experiment is HLA-A*30:01. Put plainly: IEDB peptide-MHC binding, purified MHC/competitive/fluorescence; filed as Kd, often an IC50 or EC50 that approximates it; ≥ and ≤ were set here for values at or beyond the usual limits of such assays. The note with it: source organism: Nostoc punctiforme PCC 73102.
Setting [14] is: source organism: Influenza A virus (A/chicken/Viet Nam/DT-015/2004(H5N1)).
Where [15] appears, read: source organism: Salmonella enterica subsp. enterica serovar Typhimurium.
The mark [16] stands for this setting: source organism: Yellow fever virus.
[17] abbreviates: source organism: dengue virus type 1.
The mark [18] stands for this setting: source organism: Orthohantavirus seoulense.
Where [19] appears, read: source organism: West Nile virus.

pIC50, pKd: −log10 of the molar value. Some results are limits rather than exact numbers.

As for VIILFQKAF, the pIC50 (as a rule, the IC50 on a negative log10 scale, so that one unit is a factor of ten) with HLA-A*02:01 [1] was at most 3.26; with HLA-A*24:02, 5.79; in the experiment with HLA-B*15:01 [2] (source organism: Sudan ebolavirus), at most 3.85.
For GSLFTEQAF, the pIC50 with HLA-B*15:01 [2] (source organism: Vaccinia virus WR) was 5.23.
With ESSINISGY, the figures for the pKd with HLA-A*01:01 (source organism: Mammarenavirus juninense) and with HLA-A*29:02 (source organism: Mammarenavirus machupoense) were 6.46 and 6.64, respectively.
With GIPLYDAIK, the pKd (as a rule, the Kd on a negative log10 scale, so that one unit is a factor of ten) with HLA-A*03:01 [3] (setting [14]) was at most 4.70; in the experiment with HLA-A*11:01 (setting [14]), 5.11; with HLA-A*31:01 [4] (source organism: Influenza A virus (A/X-31(H3N2))) it was at most 4.70.
Consider GVNACQVGV, for which the pKd with HLA-A*02:01 [5] (setting [15]) was 6.62; with HLA-A*02:19, 7.64; in the experiment with HLA-A*31:01 [6] (setting [15]), 4.99; with HLA-A*69:01 (setting [15]), 6.41; in the experiment with HLA-B*58:01 (setting [15]) it was 6.41.
For ALNTITNLK, the values for the pKd with HLA-A*11:01 (setting [16]) and in the experiment with HLA-A*31:01 [4] (setting [16]) were 8.07 and 7.38, respectively.
Regarding SSMVNGVVR, the pKd with HLA-A*11:01 (setting [17]) is 7.58; with HLA-A*31:01 [4] (setting [17]), 7.74.
Turning to AWQRTLKWF, the pKd with HLA-A*24:03 (source organism: Escherichia coli str. K-12 substr. MG1655) was 6.96.
KMFTFWYMR: the pKd with HLA-A*03:01 [3] (source organism: Fowlpox virus) is 6.41; with HLA-A*11:01 (source organism: Fowlpox virus) it was 8.20; in the experiment with HLA-A*31:01 [4] (source organism: Fowlpox virus), 8.86.
As to CLVSGLSSL, the pKd in the experiment with HLA-A*02:01 [7] is 8.43; with HLA-A*03:01 [8], at most 4.70; in the experiment with HLA-A*24:03 (source organism: Mus musculus) it was at most 4.70; with HLA-A*26:01 (source organism: Mus musculus), at most 4.70; in the experiment with HLA-B*15:17 (source organism: Mus musculus), at most 4.70; with HLA-B*18:01 [9], at most 4.70. Besides, the pKd with HLA-B*27:03 (source organism: Mus musculus), with HLA-B*39:01 (source organism: Mus musculus), in the experiment with HLA-B*51:01 (source organism: Mus musculus) and in the experiment with HLA-B*57:01 [10] was at most 4.70 each time.
Take KPKHLYVSM: the pKd with HLA-A*01:01 (setting [18]), in the experiment with HLA-A*02:01 [5] (setting [18]), with HLA-A*02:12, with HLA-A*03:01 [3] (setting [18]), in the experiment with HLA-A*11:01 (setting [18]) and with HLA-A*31:01 [6] (setting [18]) was at most 4.70 in each case. The negative-log Kd (pKd) is at most 4.70 in the experiment with HLA-A*68:02; at most 4.70 with HLA-A*69:01 (setting [18]); 7.07 with HLA-B*07:02 (setting [18]); 6.60 with HLA-B*08:01 (setting [18]); at most 4.70 with HLA-B*15:01 [11] (setting [18]); at most 4.70 in the experiment with HLA-B*18:01 [12] (setting [18]). Also, the pKd with HLA-B*27:05 (setting [18]), with HLA-B*40:01, with HLA-B*44:02, in the experiment with HLA-B*46:01 (setting [18]), with HLA-B*48:01 and in the experiment with HLA-B*57:01 [13] (setting [18]) was at most 4.70 each time. Also, the pKd in the experiment with HLA-B*58:01 (setting [18]), in the experiment with HLA-A*26:01 (setting [18]), in the experiment with HLA-B*15:17 (setting [18]), with HLA-B*27:03 (setting [18]), with HLA-B*39:01 (setting [18]) and with HLA-B*51:01 (setting [18]) was at most 4.70 in each case.
With VLWDTPSPK, the pKd is 8.35 in the experiment with HLA-A*11:01 (setting [19]) and 7.47 in the experiment with HLA-A*31:01 [4] (setting [19]).
Take KVIDIDLER: the pKd in the experiment with HLA-A*11:01 (source organism: Mycobacterium tuberculosis) is 7.86; in the experiment with HLA-A*31:01 [4] (source organism: Mycobacterium tuberculosis C), 7.72.
As to GMSWITQGL, the pKd with HLA-A*01:01 (setting [19]) is at most 4.70; in the experiment with HLA-A*03:01 [3] (setting [19]) it was at most 4.70; with HLA-A*11:01 (setting [19]) it was at most 4.70; with HLA-A*29:02 (setting [19]), at most 4.70; with HLA-A*31:01 [6] (setting [19]), at most 4.70; in the experiment with HLA-A*69:01 (setting [19]), 5.88. In addition, the negative logarithm of the Kd (pKd) with HLA-B*07:02 (setting [19]), with HLA-B*08:01 (setting [19]), with HLA-B*08:02, with HLA-B*18:01 [12] (setting [19]), with HLA-B*27:05 (setting [19]) and with HLA-B*46:01 (setting [19]) was at most 4.70 each time. Moreover, the pKd with HLA-B*57:01 [13] (setting [19]) and in the experiment with HLA-B*58:01 (setting [19]) was at most 4.70 in each case.
In the case of WFSSGLWPF, the figures for the pKd with HLA-A*24:03 (source organism: Nostoc punctiforme PCC 73102) and in the experiment with HLA-A*30:01 were 8.41 and at most 4.70, respectively.
As for ETFNTPAMY, the pKd was 5.90 in the experiment with HLA-A*01:01 (source organism: Homo sapiens); at most 4.44 with HLA-A*02:01 [5] (source organism: Homo sapiens); 4.98 in the experiment with HLA-A*03:01 [3] (source organism: Homo sapiens); at most 4.41 in the experiment with HLA-A*11:01 (source organism: Homo sapiens); 8.00 with HLA-A*29:02 (source organism: Entamoeba histolytica HM-1:IMSS); 7.22 with HLA-A*69:01 (source organism: Homo sapiens). Also, the negative logarithm of the Kd (pKd) in the experiment with HLA-B*15:01 [11] (source organism: Homo sapiens) is 6.26.

The values are drawn from the Immune Epitope Database (IEDB).
